This assay addresses PFD1235w DBLβ3_D4, wild type (P. falciparum 3D7). In words: SPR.

In turn, ICAM-1_D1-D2 (domain or fragment) returned a Kd of 7.9 nM and a koff of 0.00167 s⁻¹.

Values taken from article PMC4574524.
